Reference: PMC4424349, “The Plasmodium Class XIV Myosin, MyoB, Has a Distinct Subcellular Location in Invasive and Motile Stages of the Malaria Parasite and an Unusual Light Chain*” (The Journal of Biological Chemistry, 2015)

Target: T1, PfMLC-B C-terminal domain (MLC-B CTD), residues 497-652 (Plasmodium falciparum, UniProt Q8III1 497-652)
T1 construct: Myosin light chain B (MLC-B), Plasmodium falciparum 3D7, PlasmoDB PF3D7_1118700; C-terminal 156 amino acids, residues 497-652 (3' 471 bp of mlc-b cDNA, primers 27 and 28); Cloned into BamHI/XhoI of pGEX6P1; a few vector residues may remain after PreScission cleavage; also called PfMLC-B CTD; calmodulin-like C-terminal domain; source: E. coli BL21 Gold, purified (glutathione-Sepharose, PreScission …)
T1 sequence: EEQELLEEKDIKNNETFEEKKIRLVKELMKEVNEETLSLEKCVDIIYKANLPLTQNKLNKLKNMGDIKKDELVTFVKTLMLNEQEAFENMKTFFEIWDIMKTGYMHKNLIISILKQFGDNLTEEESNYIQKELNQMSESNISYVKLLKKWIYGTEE
Assay: thermal unfolding monitored by CD at 222 nm; MLC-B CTD alone or with 1.5- or 3-fold molar excess of peptide; heating 1 °C/min, 20-90 °C
Conditions: both partners purified

B1: Myosin B peptide Asn780 to His800 (peptide)
peptide: Ac-NIKNLQLAQAYFRKYKYIKEH-NH2
notes: Myosin B (MyoB), Plasmodium falciparum, residues 780-800; also called Asn780 to His800 peptide; peptide from the extreme C terminus of MyoB; source: synthetic peptide
Q: Which results are given for B1?
A: Tm of MLC-B CTD with a 1.5-fold molar excess of the peptide (59 °C without peptide): 67 °C; Tm of MLC-B CTD with a 3-fold molar excess of the peptide (59 °C without peptide): 70 °C
